According to US20200377593A1 (Innovent, published 2020):
Numbering of substitutions follows the chain as printed. One block for each binder: values may come before it.

What was measured:
[1] = target: T1, mouse CD47-Fc (mouse, UniProt Q61735 19-140, limits assumed); test: BLI (ForteBio), antibody on AHQ tip, mouse CD47-Fc in solution 100 nM, bivalent
T1 construct: not shown: Fc part; not described
T1 sequence (looked up): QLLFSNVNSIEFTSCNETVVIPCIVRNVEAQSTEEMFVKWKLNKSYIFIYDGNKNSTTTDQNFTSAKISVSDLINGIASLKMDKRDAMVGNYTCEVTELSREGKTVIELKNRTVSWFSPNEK

[2] = target: T2, human CD47-Fc (human, UniProt Q08722 19-139); test: BLI (ForteBio), human CD47-Fc on AHQ tip, Fab in solution 100 nM, monovalent
T2 construct: also called hCD47; not shown: Fc part

[3] = target: T3, human CD47 overexpressed on CHO cells (human, UniProt Q08722 19-292); test: flow cytometry on CHO-hCD47 cells, PE anti-human IgG, MFI curve
T3 construct: CHO cells transfected with pCHO1.0 carrying human CD47 cDNA (Sino Biological); also called hCD47; CHO-hCD47 cells

[4] = target: T3, human CD47 overexpressed on CHO cells; test: flow cytometry competition on CHO-hCD47 cells against 200 nM mouse Fc-labeled SIRPα
[5] = target: T2, human CD47-Fc; test: BLI (ForteBio), antibody on AHQ tip, human CD47-Fc in solution 100 nM, bivalent
[6] = target: T1, mouse CD47-Fc; test: BLI (ForteBio), antibody on AHQ tip, mouse CD47-Fc in solution, bivalent
[7] = target: T4, cynomolgus monkey CD47-Fc (cynomolgus monkey, UniProt A0A2K5X523 19-139); test: BLI (ForteBio), antibody on AHQ tip, cynomolgus monkey CD47-Fc in solution 100 nM, bivalent
T4 construct: not shown: Fc part; not described

B1: Hu5F9 (antibody, V domains shown)
VH: QVQLVQSGAEVKKPGASVKVSCKASGYTFTNYNMHWVRQAPGQRLEWMGTIYPGNDDTSYNQKFKDRVTITADTSASTAYMELSSLRSEDTAVYYCARGGYRAMDYWGQGTLVTVSS
VL: DIVMTQSPLSLPVTPGEPASISCRSSQSIVYSNGNTYLGWYLQKPGQSPQLLIYKVSNRFSGVPDRFSGSGSGTDFTLKISRVEAEDVGVYYCFQGSHVPYTFGQGTKLEIKR
Kd [1]: 12.7 nM

B2: ADI-29337 Fab fragment (Fab, V domains shown)
VH: QVQLQESGPGLVKPSETLSLTCTVSGGSINHYYWSWIRQPPGKGLEWIGAIYYSGSTRYNPSLKSRVTISVDTSKNQFSLKLSSVTAADTAVYYCARGKSAFDPWGQGTLVTVSS
VL: DIQMTQSPSSVSASVGDRVTITCRASQGISRWLAWYQQKPGKAPKLLIYAASSLQSGVPSRFSGSGSGTDFTLTISSLQPEDFATYYCQQADLHPPLTFGGGTKVEIKR
Kd [2]: 2.2 nM

B5: ADI-29337 (antibody, human IgG1, kappa, V domains shown)
VH: B2 VH
VL: B2 VL
notes: Full-length IgG1 kappa expressed in yeast, purified by Protein A
Kd [7]: 0.554 nM | Kd [5]: 0.404 nM | Kd [1]: 18.7 nM

B6: ADI-29342 Fab fragment (Fab, V domains shown)
VH: B2 VH with N30M, A50Y, R58N, S100T, A101G, F102S, D103A, P104A
VL: DIQMTQSPSSVSASVGDRVTITCRASQGISRWLAWYQQKPGKAPKLLIYAASSLQSGVPSRFSGSGSGTDFTLTISSLQPEDFATYYCQQTVSFPITFGGGTKVEIKR
Kd [2]: 11.7 nM

B7: ADI-26655 Fab fragment (Fab, V domains shown)
VH: B2 VH with N30S, H31S, A50Y, R58T, G98K, S100R, A101F, P104L, L110T
VL: not shown
notes: also called ADI-26655 (Fab form)
Kd [2]: 46.3 nM

B8: ADI-26655 (antibody, human IgG1, kappa, V domains shown)
VH: B2 VH with N30S, H31S, A50Y, R58T, G98K, S100R, A101F, P104L, L110T
VL: not shown
notes: as for B5
EC50 [3]: 7.65 nM | IC50 [4]: 38.1 nM | Kd [5]: 0.849 nM | binding result [6]: no binding (tested: 100 nM)

B9: ADI-29342 (antibody, human IgG1, kappa, V domains shown)
VH: B2 VH with N30M, A50Y, R58N, S100T, A101G, F102S, D103A, P104A
VL: B6 VL
notes: as for B5
EC50 [3]: 2.74 nM | IC50 [4]: 2.69 nM | Kd [5]: 0.486 nM | binding result [6]: no binding (tested: 100 nM)

B10: ADI-29347 Fab fragment (Fab, V domains shown)
VH: QVQLQESGPGLVKPSETLSLTCTVSGGSIANYYWSWIRQPPGKGLEWIGYTYFSGSTNYNPSLKSRVTISVDTSKNQFSLKLSSVTAADTAVYYCARGKTGSAAWGQGTLVTVSS
VL: B6 VL
notes: also called ADI-29347 (Fab form)
Kd [2]: 11.3 nM

B14: ADI-29345 Fab fragment (Fab, V domains shown)
VH: B10 VH with A30S, N31H, T51I, F53Y, S56V, N58T, A103T
VL: B6 VL
Kd [2]: 2.89 nM

B16: ADI-29338 (antibody, human IgG1, kappa, V domains shown)
VH: B2 VH with N30S, H31S, A50T
VL: B2 VL
notes: as for B5
EC50 [3]: 1.57 nM | IC50 [4]: 3.14 nM

Other lines, results leading:

Kd [2]: 130 nM
B3: ADI-26660 Fab fragment (Fab, V domains shown)
VH: B2 VH with N30S, H31S, A50S, R58N, G98K, K99Q, S100K, A101H, P104I, L110M
VL: B6 VL with R31S, T91V, V92N, S93H, F94H, I96W
notes: also called ADI-26660 (Fab form)

EC50 [3]: 5.74 nM | IC50 [4]: 16.7 nM | Kd [5]: 1.35 nM | binding result [6]: no binding (tested: 100 nM)
B4: ADI-26660 (antibody, human IgG1, kappa, V domains shown)
VH: B2 VH with N30S, H31S, A50S, R58N, G98K, K99Q, S100K, A101H, P104I, L110M
VL: B6 VL with R31S, T91V, V92N, S93H, F94H, I96W
notes: as for B5

EC50 [3]: 1.5 nM | IC50 [4]: 2.75 nM | Kd [5]: 0.403 nM | binding result [6]: no binding (tested: 100 nM)
B11: ADI-29345 (antibody, human IgG1, kappa, V domains shown)
VH: B10 VH with A30S, N31H, T51I, F53Y, S56V, N58T, A103T
VL: B6 VL
notes: as for B5

EC50 [3]: 1.81 nM | IC50 [4]: 2.16 nM | Kd [7]: 0.562 nM | Kd [5]: 0.71 nM | binding result [6]: no binding (tested: 100 nM)
B12: ADI-29347 (antibody, human IgG1, kappa, V domains shown)
VH: B10 VH
VL: B6 VL
notes: as for B5

Kd [2]: 5.04 nM
B13: ADI-29350 Fab fragment (Fab, V domains shown)
VH: B2 VH with N30E, A50Y, S56F, R58E, G98K, S100R, A101F, P104L, L110T
VL: not shown
notes: also called ADI-29350 (Fab form)

EC50 [3]: 4.42 nM | IC50 [4]: 10.5 nM | Kd [5]: 0.451 nM | binding result [6]: no binding (tested: 100 nM)
B15: ADI-29350 (antibody, human IgG1, kappa, V domains shown)
VH: B2 VH with N30E, A50Y, S56F, R58E, G98K, S100R, A101F, P104L, L110T
VL: not shown
notes: as for B5
